Reference: US20200095589, “ENGINEERED DCAS9 WITH REDUCED TOXICITY AND ITS USE IN GENETIC CIRCUITS” (Massachusetts Institute of Technology, published 2020)

Molecular target: dCas9*_HNH-L88 (ZFP fusion) (Streptococcus pyogenes / synthetic)
Experiment: cell_activity; E. coli; maximum reached at optimal 6 bp spacer; about a third of unmodified dCas9
Conditions: dCas9(R1335K), HNH deleted, 88 aa linker, C-terminal Zif268TS3
Description: A reporter system was developed to evaluate the impact of these modifications on the ability for dCas9 to repress the targeted promoter (FIGS. 13A-13F). The expression of the sgRNA and dCas9 are controlled using IPTG- and aTc-inducible promoters, respectively. All of these components are integrated into a single p15A plasmid backbone. The fold-repression is measured as the fluorescence from the output promoter in the absence of sgRNA inducer (0 mM IPTG), divided by the fluorescence when the sgRNA is expressed (1 mM IPTG). When the R1335K mutation is made (dCas9*), this completely abolishes repression as expected (FIG. 1C).
The ability for a zinc finger protein (ZFP) to recover nuclease activity was first tested. To this end, a variant of dCas9* described previously was built, where Zif268^TS3 is fused to the C-terminal end of dCas9* via a 58 amino acid linker (Bolukbasi M. F., et al., Nat. Methods, 2015 December; 12(12): 1150-56). The corresponding 12 bp operator recognized by Zif268^Ts3 was then placed upstream of the promoter, separated from the −35 position by a spacer (all promoter variants described are provided in TABLE 3). The orientation of the operator (forward and reverse) was initially tested with the forward yielding higher repression as previously observed (Bolukbasi M. F., et al., Nat. Methods, 2015 December; 12(12): 1150-56). […]

B1: sgRNA9 ; pZFP_S6 promoter (ssRNA ; dsDNA)
RNA: AUAAUACCCGUGUGACCCGUGUUUUAGAGCUAGAAAUAGCAAGUUAAAAUAAGGCUAGUCCGUUAUCAACUUGAAAAAGUGGCACCGAGUCGGUGCUUUUUUU
DNA 1: TCCGAATGACATGCGTCTCCGGTGTTGGAGCGACAGCCTTTACACCAACGGGTCACACGGGTATTATGCTAGC
DNA 2: GCTAGCATAATACCCGTGTGACCCGTTGGTGTAAAGGCTGTCGCTCCAACACCGGAGACGCATGTCATTCGGA
  activity: 28 fold repression
